Results taken from the supplement of paper PMC9170038.

Tested on: MS2 coat protein
Test: apparent KD of MS2 coat protein; designed switch direction (-1 OFF switch, 1 ON switch): -1; higher = weaker reporter binding
Procedure, shortened: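 Designed RNA switches sharing common flanks were transcribed on Illumina chips by stalled E. coli RNA polymerase. They were titrated with SNAP-549-labelled MS2 coat protein, from 0.7 or 1.5 nM doubling to 3 µM, in Tris-HCl pH 7.5 buffer with KCl, MgCl2, BSA, DTT, tRNA and Tween-20. Titrations ran without input, with 200 uM small-molecule ligand, or with an oligonucleotide input. The apparent KD of each design is the median over its clusters, after curve-fitting of normalised cluster fluorescence.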

[1] = Eterna round: R95, input ligand: microRNA oligo, concentration not stated
[2] = input ligand: microRNA oligo, concentration not stated

Sequence	apparent KD of MS2 coat protein (input ligand: FMN 200 uM) [µM]	apparent KD of MS2 coat protein (input ligand: none) [µM]	apparent KD of MS2 coat protein [1] [µM]	other results
GGUUUGCGGCAGGAUAUCCAUCCGCGGUGUGGUGGAGAAGGGCUGACAUGAGGAUCACCCAUGUGCGUCCUGGU [salish99_ex6_r4_021] (Eterna round: R97, puzzle: Exclusion 6)	0.0363	0.0218		
GGUUUGGGAGGAUAUGGUUUGAAUAACAUGAGGAUCACCCAUGUAAAUAGAUCUUCUAGGCCAGAAGGCUCGGGCC [-22.1, -20.72 kcal, A 28%] (Eterna round: R97, puzzle: Exclusion 5)	0.046	0.0278		
GUAAACGAAGAGGAUAUUUGAUAUCAAAGCUUCAAAGAAGGCUUCACAUGAGGAUCACCCAUGUGAUCUUCAAA [Mat - Exclusion 6 - JL Mod - D18] (Eterna round: R97, puzzle: Exclusion 6)	0.191	0.0233		
GUAAUUAUAUAGGAUAUCGAACUUAUUAUUUAACGAGAAGGAUGAACAUGAGGAUCACCCAUGUGGUAUCAUGG [JL-ex6-3.06] (puzzle: Exclusion 6)			0.175	
GUACUGAAGCAUAGCUUUAGUCGUACAUGAGGAUCACCCAUGUAGGAUAUGGUAGGCUUUGCUUACUAGAAGGAUAGAGUGAUC [Mat - Exclusion NG 3 - Mod of JL - D71] (Eterna round: R96, puzzle: Exclusion NG 3)	0.157	0.109		apparent KD of MS2 coat protein [2]: 0.0868 µM
GUACUGACAGGAUAUACAUGAGGAUCACCCAUGUCCUUAAGCUGACAAAAGUCAGCGAGUAGAAGGGUCUGUAC [Omei Ex3 Model Bachelor's Dilema v4] (Eterna round: R97, puzzle: Exclusion 3)	0.467	0.0719		
GUAGAGUAAGGAUAUAGAGAAUAGGAUAGAAUGGUUAGAAUCUAGAAGGUACAUGAGGAUCACCCAUGUAAUGU [Excluse me!!!! 7 - Jieux - Exclusion 4] (puzzle: Exclusion 4)			0.0187	
GUAGAGUAAGGAUAUGCAGAAUAGGAUAGAAUGGAUAGAAUGCAGAAGGUACAUGAGGAUCACCCAUGUAAUGU [Excluse me!!!! 1 - Jieux - Exclusion 4] (puzzle: Exclusion 4)			0.0193	
GUAGAGUAAGGAUAUUGUGAAUAGGAUAGAAUGGUUAGAAGCAAGAAGGUACAUGAGGAUCACCCAUGUAAUGU [Excluse me!!!! 25 - Jieux - Exclusion 4] (puzzle: Exclusion 4)			0.0231	
GUAGAGUCAGGAUAUACGAGAUCGAAAGAUCGGCGGUCCUUACAUGAGGAUCACCCAUGUAGAAGGGACUCUAC [Omei mod 6 to Eli's favorate candidate (ch.parushev)] (Eterna round: R97, puzzle: Exclusion 2)	0.258	0.0713		
GUAGAGUCAGGAUAUACGAGAUCGAAAGAUCUUUGAUCCUUACAUGAGGAUCACCCAUGUAGAAGGGACUCUAC [Omei mod 2 to Eli's favorate candidate (ch.parushev)] (Eterna round: R97, puzzle: Exclusion 2)	0.513	0.0432		
GUAUAACAUGUAGGAUAUGCAUGGCGAAGCUAUGCAGAAGGACAUGAGGAUCACCCAUGUAAUAGCGUCUGCGUACAGAUGCAA [Mat - Exclusion NG 1 - Mod of JL - D91] (Eterna round: R96, puzzle: Exclusion NG 1)	0.186	0.0387		apparent KD of MS2 coat protein [2]: 0.0294 µM
GUAUAGCUAAAGGAUAUUCUCCGACGACGUGAAGAAGAAGGUUGGACAUGAGGAUCACCCAUGUGUACAGGAUA [Eternabot (L2) Solution 62] (Eterna round: R97, puzzle: Exclusion 6)	0.0219	0.0218		
GUCAGCUCGUCAGGAUAUGCACAUGAGGAUCACCCAUGUAAGAUCAAGCUGCUUCGGCAGCAAGUGCAGAAGGGACGAGCUGAU [ENG2/9-B3] (Eterna round: R96, puzzle: Exclusion NG 2)	0.156	0.294		apparent KD of MS2 coat protein [2]: 0.214 µM
GUCAGCUCGUGAGGAUAUACAUCACUGCUUCGGCAGUGUAUUAAGAUCACAUGAGGAUCACCCAUGUAGAAGGUACGAGCUGAU [ENG2/2-C2] (Eterna round: R96, puzzle: Exclusion NG 2)	0.214	0.0269		apparent KD of MS2 coat protein [2]: 0.0176 µM
GUCAGGAAUGUAGGAUAUCUGCACGUUUAGUGCAGAGAAGGACAUGAGGAUCACCCAUGUAUAGUAGCUUCGGCUACACCUGAC [ENG1-A2] (Eterna round: R96, puzzle: Exclusion NG 1)	0.0193	0.0159		apparent KD of MS2 coat protein [2]: 0.0125 µM
GUCCGGCAUGUAGGAUAUGGAUCCGAUUAGGAUUUAGAAGGACAUGAGGAUCACCCAUGUACAUGUAAUUAGUCAUUACCGGAC [EXclNG1-LROPPY02] (Eterna round: R96, puzzle: Exclusion NG 1)	0.0402	0.0222		apparent KD of MS2 coat protein [2]: 0.0178 µM
GUCGUGCAGCUUUGCUGUACGAGUACAUGAGGAUCACCCAUGUAGGAUAUGGUACGCUUUGCGUGCUAGAAGGAUAUGUGUAGA [salish99_ExNG3_r04_502] (Eterna round: R96, puzzle: Exclusion NG 3)	0.0535	0.0361		apparent KD of MS2 coat protein [2]: 0.0302 µM

Sequence	apparent KD of MS2 coat protein (input ligand: FMN 200 uM) [µM]	apparent KD of MS2 coat protein (input ligand: none) [µM]	apparent KD of MS2 coat protein [1] [µM]	other results
GUCUAACAUGAGGAUCACCCAUGUCAGGAUAUGCGAAUUUCAUCAAAAGAUGAAAUUUGCAGAAGGGACUAGAC [Omei Ex1 A28] (Eterna round: R97, puzzle: Exclusion 1)	0.0266	0.0241		
GUCUCACAUGAGGAUCACCCAUGUGAGGAUAUACUGGGCAUUCUGGUGGCAGGUGGGCGUAGAAGGCACGUGGG [Eternabot (L1) Solution 82] (Eterna round: R97, puzzle: Exclusion 1)	0.0338	0.0194		
GUCUCCAGAGGAUAUCUUUUACGCGACAUGAGGAUCACCCAUGUAGAGGAGAUUGUCAGGAGAGAAGGCUGGGACG [Eternabot (L1) Solution 56] (Eterna round: R97, puzzle: Exclusion 5)	0.0551	0.0427		
GUCUCGUCAGGAUAUGACGCUACAUUUUGUUUUUAGAAGAGUCAGAAGGGACAUGAGGAUCACCCAUGUGAUUC [Ex4 - 3 - 1] (puzzle: Exclusion 4)			0.257	
GUCUUAAGUUAAACCGAUUACAUGAGGAUCACCCAUGUGAACAUGACAGUCCGCAUGAGGAGUUUCUUGCUCGUCAU [Eternabot (L1) Solution 28] (Eterna round: R97, puzzle: Sensor, turn-off variant 1)	0.0496	0.0468		
GUCUUACAUGAGGAUCACCCAUGUGAGGAUAUGAGUGGUGCUGCUAGGUAGUAUAGACUCAGAAGGCGCAUGAU [Malcxlusion 3 - Jieux - Exclusion 1] (Eterna round: R97, puzzle: Exclusion 1)	0.0377	0.0226		
GUGAAGUAAGGAUAUACAUGAGGAUCACCCAUGUGUGGGAAGGUGAUGGGAGUAGGUAGUAGAAGGUACGAGGA [JR_Exclu3_Sub065] (puzzle: Exclusion 3)			0.108	
GUGAAGUAAGGAUAUAGUGGAAAAGAUAAGGUAUGAGAGUUCUAGAAGGUACAUGAGGAUCACCCAUGUUAGGG [JR_Exclu4_Sub085] (Eterna round: R96, puzzle: Exclusion 4)	0.324	0.36		apparent KD of MS2 coat protein [2]: 0.212 µM
GUGAAGUAAGGAUAUAGUGGAAAAGAUAAGGUAUGAGAGUUCUAGAAGGUACAUGAGGAUCACCCAUGUUAGGG [JR_Exclu4_Sub085] (puzzle: Exclusion 4)			0.267	
GUGCAGCGAGGAUAUACAGACGGGUCCAGUACGUGUCUUGGACUUGAGGAUCACCCAAGUAGAAGGCGUCUCAG [salish99_ex2_r4_609] (Eterna round: R97, puzzle: Exclusion 2)	0.0354	0.0368		
GUGGUAGGUUUUUCGAGUAACAUGAGGAUCACCCAUGUAUUAGUUGGAUGUAUCAAGCUUUUUGCUCGACUUAUAAA [JR_SV3TOV1_Sub043] (puzzle: Sensor v3, turn-off variant 1)			0.0406	apparent KD of MS2 coat protein (Eterna round: R95, input ligand: FMN 200 uM): 0.249 µM; apparent KD of MS2 coat protein (Eterna round: R95, input ligand: none): 0.288 µM
GUGUACAGAGGAUAUACACGAGGAGUUACGAAAGUAACUUCACAUGAGGAUCACCCAUGUAGAAGGCUGUACAC [Dot plot directed v6] (puzzle: Exclusion 2)			0.0254	
GUGUAGAGAGGAUAUACAUGAGGAUCACCCAUGUGAAUAAGAUAGAAUAAGAUAAAGUGUAGAAGGCUUAGUGU [Excluse me!!! 20 - Jieux - Exclusion 3] (puzzle: Exclusion 3)			0.0318	
GUGUAGAUAGGAUAUACGAGAGUCUAGCGAAGCUAGAUUCUACAUGAGGAUCACCCAUGUAGAAGGGUCUACAC [Fiskers Ex 2 - 30] (puzzle: Exclusion 2)			0.0142	
GUGUAGUCAGGAUAUACAUAGGAAGAGAAGAGAAGAUAAGCACAUGAGGAUCACCCAUGUAGAAGGGACAGUGU [Excluse me!! 3 - Jieux - Exclusion 2] (puzzle: Exclusion 2)			0.0574	
GUUAAUUGUGACAUGGGUGACAUGAGGAUCACCCAUGUCACAAGCUUUUUGUUCGUCUUAUAAUUAACCCAUGUCAC [Stov1/13-B2] (Eterna round: R97, puzzle: Sensor, turn-off variant 1)	0.0798	0.0948		
GUUCGACAUGAGGAUCACCCAUGUGAGGAUAUACGAUUAGCUGCUAGGUAGUUAGUAUGUAGAAGGUGCGUGUU [EX1 #70] (Eterna round: R97, puzzle: Exclusion 1)	0.0533	0.0542		
